Results published in US20230235075A1 (DYNAMICURE BIOTECHNOLOGY, published 2023).
Each block holds one binder with its values, some of them ahead of it.

What was measured:
[1] = target: T1, Human CD93 on the cell surface (human CD93 expressing CHO cells; HUVEC, U937 and KG1a cells) (human, UniProt Q9NPY3 22-652); test: FACS, CHO cells overexpressing human CD93
T1 construct: whole, on cells; also called hCD93 CHO cells; CHO-hCD93
T1 sequence (looked up): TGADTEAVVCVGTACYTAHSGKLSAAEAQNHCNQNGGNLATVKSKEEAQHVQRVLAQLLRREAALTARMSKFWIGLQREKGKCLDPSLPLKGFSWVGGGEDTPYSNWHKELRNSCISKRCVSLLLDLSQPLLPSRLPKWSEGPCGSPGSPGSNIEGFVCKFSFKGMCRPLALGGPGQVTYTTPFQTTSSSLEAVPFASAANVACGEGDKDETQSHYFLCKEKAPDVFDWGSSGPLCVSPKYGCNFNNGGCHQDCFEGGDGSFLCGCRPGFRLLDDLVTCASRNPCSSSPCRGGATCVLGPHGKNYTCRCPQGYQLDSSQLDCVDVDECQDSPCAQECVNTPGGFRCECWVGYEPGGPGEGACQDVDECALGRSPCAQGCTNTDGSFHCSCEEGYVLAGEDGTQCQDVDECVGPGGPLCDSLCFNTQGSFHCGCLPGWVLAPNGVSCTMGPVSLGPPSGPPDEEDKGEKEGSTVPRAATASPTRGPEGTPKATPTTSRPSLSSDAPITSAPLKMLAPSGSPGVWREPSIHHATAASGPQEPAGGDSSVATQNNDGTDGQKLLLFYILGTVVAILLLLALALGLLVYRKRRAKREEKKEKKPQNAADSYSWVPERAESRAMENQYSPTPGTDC

[2] = target: T2, Human CD93 recombinant protein (Sino Biological Inc, Catalog #12589-H08H) (human, UniProt Q9NPY3 22-580, biotinylated with EZ-LINK NHS-PEG4 biotin in the Octet assays); test: ELISA, His-tagged human CD93 coated at 1 µg/mL
T2 construct: also called hCD93; His-tagged human CD93
T2 sequence (looked up): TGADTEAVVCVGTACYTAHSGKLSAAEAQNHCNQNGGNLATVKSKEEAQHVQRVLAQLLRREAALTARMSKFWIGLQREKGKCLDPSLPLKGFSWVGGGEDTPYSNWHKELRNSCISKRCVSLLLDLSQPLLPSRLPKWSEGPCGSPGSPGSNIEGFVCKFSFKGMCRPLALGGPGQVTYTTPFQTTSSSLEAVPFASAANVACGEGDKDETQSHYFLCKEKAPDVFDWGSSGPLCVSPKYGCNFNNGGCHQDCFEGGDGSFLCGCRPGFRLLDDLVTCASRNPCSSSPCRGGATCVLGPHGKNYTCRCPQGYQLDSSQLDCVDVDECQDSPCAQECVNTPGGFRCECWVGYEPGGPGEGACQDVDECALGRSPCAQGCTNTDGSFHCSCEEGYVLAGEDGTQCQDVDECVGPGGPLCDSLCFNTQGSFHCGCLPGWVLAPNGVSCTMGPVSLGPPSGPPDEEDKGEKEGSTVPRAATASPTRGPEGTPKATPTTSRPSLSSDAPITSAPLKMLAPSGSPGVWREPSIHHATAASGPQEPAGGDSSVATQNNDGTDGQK
Procedure: 17B10 antibody produced by hybridoma (17B10-Hyb in FIG. 33) was compared to recombinant parental 17B10-hFc (17B10-hIgG1 in FIG. 33) and humanized 17B10-mFc (h17B10-H3L3 in FIG. 33) to determine the binding to human CD93. His-tagged human CD93 was coated onto a 96 well plate at 1 μg/mL in 1×PBS overnight at 4° C. The plate was washed with ELISA wash buffer (Boston BioProduct, Inc.) and the wells were blocked with ELISA blocking buffer for 1 hour at 37° C. Purified 17B10 antibodies were serially diluted in ELISA blocking buffer (Boston BioProduct, Inc.) and incubated on the receptor for 1 hour at 37° C. The plate was washed with ELISA wash Buffer. HRP conjugated Anti-mouse Fc was diluted in ELISA blocking buffer and added to the wells containing the hybridoma produced 17B10. HRP conjugated anti-human Fc was added to the well containing the recombinant 17B10 antibodies for 1 hour at 37° C. The plate was washed with ELISA wash Buffer. HRP substrate was added for indirect detection of the antibodies binding to CD93.

[3] = target: T1, Human CD93 on the cell surface (human …); test: summary table, column 'Binding' (assay not given)
[4] = target: T1, Human CD93 on the cell surface (human …); test: flow cytometry, primary HUVEC cells, with and without human serum
Procedure: Recombinant parental anti-CD93 antibodies were evaluated for their ability to bind to HUVEC cells in the presence or absence of human serum. The 16E4, 7F3, 16A1, and 17B10 sequences obtained from the hybridoma cells were expressed recombinantly with a human CH1 domain and mouse IgG1 CH2 and CH3 Fc domains. Antibodies were purified using Protein G Sepharose. The resulting antibodies were tested for its binding capacity to a variety of cells that express CD93. […] Cells were quenched with media then counted. Cells were resuspended in FACS buffer (ice cold PBS with 0.5% BSA) and human serum was added to 20% (10% final volume) and put on ice for approximately 20 minutes. 5×10⁴ cells were seeded per well in 100 μL media and incubated with serial diluted anti-CD93 antibodies in 100 μL on ice for 2 hours. Cells were then washed by spinning cells at 1200 rpm for 5 min. Media was discarded and cells were resuspended in 200 μL ice cold FACS buffer. The wash step was repeated and cells were resuspended in 100 μL of secondary antibody, AlexaFluor647 conjugated anti-human IgG or anti-mouse IgG antibodies (Jackson ImmunoResearch), diluted 1:500 in FACS buffer. Plates were blocked from light and incubated 1 hour at 4° C. […] Samples were stored at 4° C. covered in foil, then were acquired in NovoCyte Flow Cytometer and analyzed by NovoExpress software.

[5] = target: T1, Human CD93 on the cell surface (human …); test: FACS, human CD93 expressing CHO cells, serially diluted antibody
Procedure: Binding of anti-CD93 antibodies 7F3 and 16E4 to cell surface expressing human CD93 CHO cells was determined by fluorescence activated cell sorting (FACS) assay. Human CD93 expressing CHO cells were detached by incubation with TrypLE reagents (Thermo Fisher), which preserves the integrity of CD93 on the cell surface. Then the cells were incubated with serially diluted anti-CD93 antibodies for 30 minutes in 4° C. After washing by FACS buffer, the cells were incubated with Alexa Fluor 647 conjugated anti-human IgG (Jackson ImmunoResearch) for 30 minutes in 4° C. After washing by FACS buffer twice, the samples were acquired in NovoCyte Flow Cytometer and analyzed by NovoExpress software.

[6] = target: T2, Human CD93 recombinant protein (Sino …); test: BLI (Octet QKe), biotinylated CD93 on streptavidin sensors

binding result [2]: binds | binding result [3]: binds
B2: 17B10 (hybridoma) (antibody, V domains shown)
VH: QVQLQQSGPELVKPGASVKISCKASGYAFSSYWLNWVKQRPGKGLEWFGRIYPGDGDTDYNGKFKGKATLTADKSSSTAYMQLRSLTSEDSAVYFCVRGDGYWAMDYWGQGTSVTVSS
VL: DIVMTQAAFSNPVTLGTSASISCRFSKSLLHSNGITYLYWYLQKPGQSPQLLIYQMSNLASGVPDRFSSSGSGTDFTLRISRVEAEDVGVYYCAQNLELPWTFGGGTKLEIK
notes: Mouse hybridoma monoclonal antibody, purified over Protein G

binding result [2]: binds
B3: recombinant parental 17B10-hFc (antibody, human IgG1, V domains shown)
VH: B2 VH
VL: B2 VL
notes: also called 17B10-hIgG1; recombinant parental 17B10 with the human Fc

binding result [4]: binds
B4: Recombinant parental 17B10 (human CH1 domain, mouse IgG1 CH2 and CH3 Fc domains) (antibody, V domains shown)
VH: B2 VH
VL: B2 VL

binding result [3]: binds | binding result [6]: binds
B7: 10B1 (antibody, V domains shown)
VH: QVQLKQSGPGLVQPSQSLSITCTVSDFSLSSFGVNWVRQPPGKGLEWLGVIWSGGSTDYNVAFISRLSISKDNSKSQVFFKMNNLQADDTAIYYCARNWRYDGYFYAMDYWGQGTSVTVSS
VL: DIVMTQSQKFMSTSTGDRVSVTCKASQNVGTNVAWYQQKPGQSPKALIYSASYRFIGVPDRFTGSGSGTDFTLTITNVQSEDLAEYFCQQYNRNPITFGSGTKLEIK
notes: Mouse hybridoma monoclonal antibody; also called 10B1 mAb

More lines, now with the values behind:

B1: Humanized 17B10 (VH3VL3, i.e., H3L3) (antibody, mouse IgG1, V domains shown)
VH: QVQLVQSGPEVKKPGESLKISCKASGYAFSSYWLNWVRQMPGKGLEWMGRIYPGDGDTDYNGKFKGQVTISADKSSGTAYLQLSSLKASDTAVYFCVRGDGYWAMDYWGQGTLVTVSS
VL: DIVMTQSPDSLAVSLGERATINCRFSKSLLHSNGITYLYWYQQKPGQPPKLLIYQMSNLASGVPDRFSGSGSGTDFTLTISSLQAEDVAVYYCAQNLELPWTFGGGTKLEIK
notes: also called h17B10-H3L3; humanized 17B10-mFc
binding result [1]: binds | binding result [2]: binds

B5: 16E4-hIgG1 (antibody, V domains shown)
VH: QVQLQQPGAELVKPGASVKLSCKASGYTFTSYWMHWVKQRPGQGLEWIGEIDPSASYTYYNQKFKGKATLTVDKSSSTAYMQLSSLTSEDSAVYYCARSVYYGNKYFDVWGAGTTVTVSS
VL: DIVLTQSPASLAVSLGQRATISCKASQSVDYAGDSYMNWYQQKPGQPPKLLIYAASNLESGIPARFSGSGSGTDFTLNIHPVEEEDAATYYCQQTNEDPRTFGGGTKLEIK
notes: the same paragraph also calls it 'humanized'; also called recombinant 16E4; recombinant chimeric 16E4
EC50 [5]: 0.24 nM

B6: 7F3-hIgG1 (antibody, V domains shown)
VH: QVQLQQSGADLVRPGASVKLSCKASGYTFTDYEMHWVKQTPVYGLEWIGGIDPETGDTAYNQNFKGKATLTADKSSSAAYMELRSLTSEDSAVYYCTNYGNLYYYAMDYWGQGTSVTVSS
VL: ENVLTQSPAIMSASPGEKVTMTCRASSSVSSSYLHWYQQKSGASPKLWIYSTSNLAFGVPARFSGSGSGTSYSLTISSVEAEDAATYYCQQYSGYPLTFGSGTKLEIK
notes: the same paragraph also calls it 'humanized'; also called recombinant 7F3 antibody; recombinant chimeric 7F3
EC50 [5]: 0.4 nM
